The record followed here is patent publication EP4242225A1 (Consejo Superior De Investigaciones Científicas, dated 2023).

Like-named read-outs stand apart in the source and are kept apart here. A value given as a limit tells only on which side of the number the result lay.

For assay [1], the target named is S protein of SARS-CoV-2 on pseudotyped retroviral particles (Spp) (SARS-CoV-2, UniProt P0DTC2 14-1273). Briefly: cell-based or functional assay.
Assay [2] has as its target T1, RBD-FH, monomeric RBD (332-534) with a FLAG peptide and an 8xHis-tag at the C-terminus (SARS-CoV-2, UniProt P0DTC2 332-534).
Assay [3] deals with T1, RBD-FH, monomeric RBD (332-534) with a …. The source holds these as a separate data set.
Assay [4] deals with T2, monomeric RBD of SARS-CoV-2 S (WA1) (SARS-CoV-2, UniProt P0DTC2 332-534).
T2 construct: domain: RBD
Briefly: ELISA, hcAb dilutions on plate-bound monomeric RBD. For orientation: In an ELISA, binding on a coated surface is turned into a signal by an enzyme label.

The target in assay [5] is T3, RBD-Fc, Wuhan strain (WA1) (SARS-CoV-2; human, UniProt P0DTC2 332-534).
T3 construct: range 332-534; also called WA1 RBD; WA1 RBD-Fc
Briefly: ELISA, biotin-labeled bispecific hcAb on plate-bound RBD-Fc.

B1: hcAb 2.1 (Fc fusion)
heavy: QVQLVESGGGSVQAGGSLRLSCAAFGATISSAHMGWFRQAPGKEREGVAFRYTDGSSTYYTTSVRGRFTISQDNAKNTVYLQMNSLKPEDTAMYYCASNPSWGRLVGGQYNNWGQGTQITVSS
notes: also called 2.1Fc
As a reminder, the Kd is a measure of binding affinity in units of concentration. Low readings indicate higher affinity, high ones lower affinity. What is called koff is a measure of how fast the partners let go of each other. Usually kon stands for the rate constant with which the complex forms. Higher therefore signals faster complex formation. On to B1, for which, in assay [1], the “inhibition of Spp entry into Vero-E6 cells (luciferase, 48 h.p.i.)” value (from here on “inhibition … (luciferase, 48 h.p.i.)”) is above 90%. For the same molecule, in assay [2], the Kd came out at 0.36 nM, the off-rate (koff) was 0.000281 s⁻¹ and the on-rate (kon) was found to be 771000 M⁻¹ s⁻¹.

B2: Nb 2.1 (VHH)
VHH: QVQLVESGGGSVQAGGSLRLSCAAFGATISSAHMGWFRQAPGKEREGVAFRYTDGSSTYYTTSVRGRFTISQDNAKNTVYLQMNSLKPEDTAMYYCASNPSWGRLVGGQYNNWGQGTQITVSS
In assay [3], B2 gave a Kd of 1.74 nM, a koff of 0.00233 s⁻¹ and an association rate constant (kon) of 1.34e+06 M⁻¹ s⁻¹.

B3: hcAb 2.15 (Fc fusion)
heavy: QVQLVESGGGSVQAGGSLKLSCAASGYASWARKCIGWFRQAPGQEREGVAAIFDFDGSTYYSDSVKGRFTISGDNAKNTVSLQMNSLLPKDTAVYYCTVAFGTCDNWYRGRGDYWGQGTQVTVSS
Turning to B3, the “inhibition … (luciferase, 48 h.p.i.)” value in assay [1] is above 90%.

B4: Nb 2.11 (VHH)
VHH: QVQLVESGGGSVQAGGSLRLSCAASGDASNRKCVSWFRRAPGKEREGVALIFPVGSSTAYADSVKGRFTISQDSAKDTVYLQMNNLKPEDSGTYYCAAVSWGGRCNLETQTVTFWGQGTQVTVSS
In assay [3], B4 displayed a Kd of 1.72 nM, a koff of 0.0054 s⁻¹ and a kon of 3.15e+06 M⁻¹ s⁻¹.

B5: hcAb 2.11 (Fc fusion)
heavy: QVQLVESGGGSVQAGGSLRLSCAASGDASNRKCVSWFRRAPGKEREGVALIFPVGSSTAYADSVKGRFTISQDSAKDTVYLQMNNLKPEDSGTYYCAAVSWGGRCNLETQTVTFWGQGTQVTVSS
notes: also called 2.11Fc
With B5, in assay [2], the Kd was 0.16 nM, the off-rate constant (koff) turned out to be 0.0003 s⁻¹ and the on-rate (kon) was found to be 1.82e+06 M⁻¹ s⁻¹.

B6: hcAb 1.10 (Fc fusion)
heavy: QVQLVESGGGSVQAGGSLRLSCAASGYTYSTCRKGWYRQAPGKERELVASITADGATYYLDSVKGRLTISQDNAKNTVYLQMNSLKPEDTAVYYCAASVKDFTCTFNSWGQGTQVTVSS
For B6, the “inhibition … (luciferase, 48 h.p.i.)” value in assay [1] was above 90%.

B7: hcAb 1.29 (Fc fusion)
heavy: QVQLVESGGGSVQAGGSLRLSCAASGYTINTDAVAWFRQAPGKGDERVAVIYTGSGNTNYADSVKGRFTISQDNAKNTVYLQMNSLKPEDTALYYCASGYYGASGYDFNNWGQGTQVTVSS
A word on the EC50: it is the concentration that produces a half-maximal response. High values mean a less potent agent, low ones a more potent agent. Turning to B7, the “inhibition … (luciferase, 48 h.p.i.)” value in assay [1] is at least 90%. In assay [2], this molecule yielded a dissociation constant Kd of 0.63 nM, an off-rate constant (koff) of 0.000221 s⁻¹ and an association rate constant (kon) of 353000 M⁻¹ s⁻¹. The EC50 in assay [4] was found to be 35 nM.

B8: Nb 1.29 (VHH)
VHH: QVQLVESGGGSVQAGGSLRLSCAASGYTINTDAVAWFRQAPGKGDERVAVIYTGSGNTNYADSVKGRFTISQDNAKNTVYLQMNSLKPEDTALYYCASGYYGASGYDFNNWGQGTQVTVSS
For B8, in assay [3], the equilibrium dissociation constant (Kd) was 12.9 nM, the koff worked out at 0.00614 s⁻¹ and the kon stood at 476000 M⁻¹ s⁻¹.

B9: hcAb 2.20 (Fc fusion)
heavy: QVQLVESGGGSVQAGGSLRLSCAASGYTYNNYYMGWFRQAPGKEREGVAAINSDGLDTYVADSVKGRFTISRDNAKDTVHLQMNSLKPEDTAIYSCATGRTVYYSGYDFRLSVDDYWGQGTQVTVSS
notes: also called 2.20Fc; 2.20 hcAb
Take B9: the “inhibition … (luciferase, 48 h.p.i.)” value in assay [1] was at least 90%. In addition, in assay [2], binding was characterised by a dissociation constant (Kd) of 0.21 nM, the koff was determined as 0.000233 s⁻¹ and the on-rate (kon) was 1.09e+06 M⁻¹ s⁻¹.

B10: Nb 2.20 (VHH)
VHH: QVQLVESGGGSVQAGGSLRLSCAASGYTYNNYYMGWFRQAPGKEREGVAAINSDGLDTYVADSVKGRFTISRDNAKDTVHLQMNSLKPEDTAIYSCATGRTVYYSGYDFRLSVDDYWGQGTQVTVSS
In assay [3], B10 showed a Kd of 0.77 nM, an off-rate constant (koff) of 0.00101 s⁻¹ and a kon of 1.3e+06 M⁻¹ s⁻¹.

B11: bispecific hcAb 1.29-1.10 (bispecific antibody)
heavy: QVQLVESGGGSVQAGGSLRLSCAASGYTINTDAVAWFRQAPGKGDERVAVIYTGSGNTNYADSVKGRFTISQDNAKNTVYLQMNSLKPEDTALYYCASGYYGASGYDFNNWGQGTQVTVSSGGGGSGGGGSGGGGSQVQLVESGGGSVQAGGSLRLSCAASGYTYSTCRKGWYRQAPGKERELVASITADGATYYLDSVKGRLTISQDNAKNTVYLQMNSLKPEDTAVYYCAASVKDFTCTFNSWGQGTQVTVSS
Consider B11, for which, in assay [5], the binding result was “binds”.

B12: hcAb 1.26 (Fc fusion)
heavy: QVQLVESGGGLVQAGGSLRLSCAATGYTWSSVCMGWFRQAPGKEREGVAGIPSGRNRPYYADSVKGRFTISQDNAKNAVFLLMNSLKPEDTAIYYCAPCSAPHDPEYNYWGQGTQVTVSS
As to B12, the “inhibition … (luciferase, 48 h.p.i.)” value in assay [1] was at least 90%. In assay [2], this molecule had a dissociation constant (Kd) of 0.08 nM, a koff of 0.000148 s⁻¹ and a kon of 1.76e+06 M⁻¹ s⁻¹. In addition, the EC50 in assay [4] is 1 nM.

B13: Nb 1.26 (VHH)
VHH: QVQLVESGGGLVQAGGSLRLSCAATGYTWSSVCMGWFRQAPGKEREGVAGIPSGRNRPYYADSVKGRFTISQDNAKNAVFLLMNSLKPEDTAIYYCAPCSAPHDPEYNYWGQGTQVTVSS
In assay [3], B13 returned a Kd of 0.26 nM, a koff of 0.000624 s⁻¹ and an on-rate (kon) of 2.44e+06 M⁻¹ s⁻¹.

B14: hcAb 1.16 (Fc fusion)
heavy: QVQLVESGGGSVQAGGSLRLSCAASGNTSKRKCVGWFRRAPGKEREGVTLIYTVGGSTVYADSVKGRFTISQDNAKDTVYLQMNSLKPEDSAMYYCAAESWGRQCNLETHRFTFWGQGTQVTVSS
notes: also called 1.16Fc
In assay [2], B14 registered a Kd of 0.25 nM, a koff of 0.000438 s⁻¹ and a kon of 1.72e+06 M⁻¹ s⁻¹.

B15: Nb 1.16 (VHH)
VHH: QVQLVESGGGSVQAGGSLRLSCAASGNTSKRKCVGWFRRAPGKEREGVTLIYTVGGSTVYADSVKGRFTISQDNAKDTVYLQMNSLKPEDSAMYYCAAESWGRQCNLETHRFTFWGQGTQVTVSS
In assay [3], B15 gave a Kd of 3.59 nM, an off-rate (koff) of 0.00705 s⁻¹ and an association rate constant (kon) of 1.96e+06 M⁻¹ s⁻¹.
